Blank lines part the entries; values can stand above or below the binder they belong to.
Target: T1, recombinant human IgE (human, UniProt P01854-1 1-428)
T1 construct: made in-house (ALK); preloaded on immobilised FcεRIα in the displacement ELISA
Experiment: IgE-FcεRIα displacement ELISA
Method in brief: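 Streptavidin-coated plates carried site-specifically biotinylated recombinant human FcεRIα, loaded with recombinant human IgE at 13 ng/ml. sdAbs in a pM–μM series were added for 1 h, and displaced IgE was washed off. Percent displacement was the signal reduction versus the no-sdAb control, giving EC50 and maximal effect.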

T1 sequence (P01854 other isoform, or with tags, fused parts or gaps): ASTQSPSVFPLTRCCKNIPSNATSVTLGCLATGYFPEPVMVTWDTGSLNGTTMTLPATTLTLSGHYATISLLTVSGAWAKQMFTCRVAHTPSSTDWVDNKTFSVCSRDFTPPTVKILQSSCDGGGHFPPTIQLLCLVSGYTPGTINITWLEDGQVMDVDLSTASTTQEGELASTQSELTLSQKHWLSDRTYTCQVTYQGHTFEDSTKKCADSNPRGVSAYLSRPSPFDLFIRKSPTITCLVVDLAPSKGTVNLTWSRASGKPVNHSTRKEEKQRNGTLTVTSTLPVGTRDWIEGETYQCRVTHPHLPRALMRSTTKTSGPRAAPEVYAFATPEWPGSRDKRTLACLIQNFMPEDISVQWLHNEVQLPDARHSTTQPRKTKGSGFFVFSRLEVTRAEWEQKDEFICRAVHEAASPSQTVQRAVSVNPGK

B1: CIgG4B1A1(G3S) (Fc fusion)
chain 1: GPPCPPCPAPEFLGGPSVFLFPPKPKDTLMISRTPEVTCVVVDVSQEDPEVQFNWYVDGVEVHNAKTKPREEQFNSTYRVVSVLTVLHQDWLNGKEYKCKVSNKGLPSSIEKTISKAKGQPREPQVYTLPPCQEEMTKNQVSLWCLVKGFYPSDIAVEWESNGQPENNYKTTPPVLDSDGSFFLYSRLTVDKSRWQEGNVFSCSVMHEALHNHYTQKSLSLSLGKGGGSQVQLQESGGGLVQTGGSLRLSCAVHGRTFSNTGMGWFRQAPGNERQFVAIISPSGTSTYYADSVKGRFTISRDPAKNTVYLQMNSLKMDDTAVYYCAASYGSNWSTLRHQRRNEYDAWGQGTQVAVS
chain 2: GPPCPPCPAPEFLGGPSVFLFPPKPKDTLMISRTPEVTCVVVDVSQEDPEVQFNWYVDGVEVHNAKTKPREEQFNSTYRVVSVLTVLHQDWLNGKEYKCKVSNKGLPSSIEKTISKAKGQPREPQVCTLPPSQEEMTKNQVSLSCAVKGFYPSDIAVEWESNGQPENNYKTTPPVLDSDGSFFLVSRLTVDKSRWQEGNVFSCSVMHEALHNHYTQKSLSLSLGKGGGSEVQLLESGGGLVQPGGSLRLSCAASGFTFGNYDMAWVRQAPGKRPEWVSSIDTGGDITHYADSVKGRFTISRDNAKNTLYLQMNSLRPEDTAVYWCATDEEYALGPNEFDYYGQGTLVTVSS
EC50: 3.1 nM
Max effect: > 95%

B2: B2A1(G4S)4 (bispecific antibody)
chain: QVQLVESGGGLVQAGGSLRLSCAVFGSTFSNNVADWYRQAPGKQRELVARISASGATREYGDSVKGRFTISRDDAKNTMYLQMNNLKPEDTAVYRCHKIEWEDLSRKDYWGQGTQVTVSGGGGSGGGGSGGGGSGGGGSEVQLLESGGGLVQPGGSLRLSCAASGFTFGNYDMAWVRQAPGKRPEWVSSIDTGGDITHYADSVKGRFTISRDNAKNTLYLQMNSLRPEDTAVYWCATDEEYALGPNEFDYYGQGTLVTVS
EC50: 30 nM
Max effect: > 95%

B5: CIgG4B1A1(EAAAK)2 (Fc fusion)
chain 1: GPPCPPCPAPEFLGGPSVFLFPPKPKDTLMISRTPEVTCVVVDVSQEDPEVQFNWYVDGVEVHNAKTKPREEQFNSTYRVVSVLTVLHQDWLNGKEYKCKVSNKGLPSSIEKTISKAKGQPREPQVYTLPPCQEEMTKNQVSLWCLVKGFYPSDIAVEWESNGQPENNYKTTPPVLDSDGSFFLYSRLTVDKSRWQEGNVFSCSVMHEALHNHYTQKSLSLSLGKEAAAKEAAAKQVQLQESGGGLVQTGGSLRLSCAVHGRTFSNTGMGWFRQAPGNERQFVAIISPSGTSTYYADSVKGRFTISRDPAKNTVYLQMNSLKMDDTAVYYCAASYGSNWSTLRHQRRNEYDAWGQGTQVAVS
chain 2: GPPCPPCPAPEFLGGPSVFLFPPKPKDTLMISRTPEVTCVVVDVSQEDPEVQFNWYVDGVEVHNAKTKPREEQFNSTYRVVSVLTVLHQDWLNGKEYKCKVSNKGLPSSIEKTISKAKGQPREPQVCTLPPSQEEMTKNQVSLSCAVKGFYPSDIAVEWESNGQPENNYKTTPPVLDSDGSFFLVSRLTVDKSRWQEGNVFSCSVMHEALHNHYTQKSLSLSLGKEAAAKEAAAKEVQLLESGGGLVQPGGSLRLSCAASGFTFGNYDMAWVRQAPGKRPEWVSSIDTGGDITHYADSVKGRFTISRDNAKNTLYLQMNSLRPEDTAVYWCATDEEYALGPNEFDYYGQGTLVTVSS
EC50: 4.1 nM
Max effect: > 95%

B6: B3A1(G4S)4 (bispecific antibody)
chain: DVQLQESGGGLVQAGGSLRLSCAASGFIFRLAGMSWVRQAPGKGFEWVSGITMDGSTTNYADSVKGRFTISRDNSKNRLYLQMNSLKPEDTAVYYCARGAKGGYNDPRGQGTQVTVSGGGGSGGGGSGGGGSGGGGSEVQLLESGGGLVQPGGSLRLSCAASGFTFGNYDMAWVRQAPGKRPEWVSSIDTGGDITHYADSVKGRFTISRDNAKNTLYLQMNSLRPEDTAVYWCATDEEYALGPNEFDYYGQGTLVTVS
EC50: 0.3 nM
Max effect: > 95%

B7: CIgG4B1A1(EAAAK) (Fc fusion)
chain 1: GPPCPPCPAPEFLGGPSVFLFPPKPKDTLMISRTPEVTCVVVDVSQEDPEVQFNWYVDGVEVHNAKTKPREEQFNSTYRVVSVLTVLHQDWLNGKEYKCKVSNKGLPSSIEKTISKAKGQPREPQVYTLPPCQEEMTKNQVSLWCLVKGFYPSDIAVEWESNGQPENNYKTTPPVLDSDGSFFLYSRLTVDKSRWQEGNVFSCSVMHEALHNHYTQKSLSLSLGKEAAAKQVQLQESGGGLVQTGGSLRLSCAVHGRTFSNTGMGWFRQAPGNERQFVAIISPSGTSTYYADSVKGRFTISRDPAKNTVYLQMNSLKMDDTAVYYCAASYGSNWSTLRHQRRNEYDAWGQGTQVAVS
chain 2: GPPCPPCPAPEFLGGPSVFLFPPKPKDTLMISRTPEVTCVVVDVSQEDPEVQFNWYVDGVEVHNAKTKPREEQFNSTYRVVSVLTVLHQDWLNGKEYKCKVSNKGLPSSIEKTISKAKGQPREPQVCTLPPSQEEMTKNQVSLSCAVKGFYPSDIAVEWESNGQPENNYKTTPPVLDSDGSFFLVSRLTVDKSRWQEGNVFSCSVMHEALHNHYTQKSLSLSLGKEAAAKEVQLLESGGGLVQPGGSLRLSCAASGFTFGNYDMAWVRQAPGKRPEWVSSIDTGGDITHYADSVKGRFTISRDNAKNTLYLQMNSLRPEDTAVYWCATDEEYALGPNEFDYYGQGTLVTVSS
EC50: 3 nM
Max effect: > 95%

B8: A1B1(G4S)4 (bispecific antibody)
chain: EVQLLESGGGLVQPGGSLRLSCAASGFTFGNYDMAWVRQAPGKRPEWVSSIDTGGDITHYADSVKGRFTISRDNAKNTLYLQMNSLRPEDTAVYWCATDEEYALGPNEFDYYGQGTLVTVSGGGGSGGGGSGGGGSGGGGSQVQLQESGGGLVQTGGSLRLSCAVHGRTFSNTGMGWFRQAPGNERQFVAIISPSGTSTYYADSVKGRFTISRDPAKNTVYLQMNSLKMDDTAVYYCAASYGSNWSTLRHQRRNEYDAWGQGTQVAVS
EC50: 0.9 nM
Max effect: > 95%

B11: CIgG4B1A1(G2S) (Fc fusion)
chain 1: GPPCPPCPAPEFLGGPSVFLFPPKPKDTLMISRTPEVTCVVVDVSQEDPEVQFNWYVDGVEVHNAKTKPREEQFNSTYRVVSVLTVLHQDWLNGKEYKCKVSNKGLPSSIEKTISKAKGQPREPQVYTLPPCQEEMTKNQVSLWCLVKGFYPSDIAVEWESNGQPENNYKTTPPVLDSDGSFFLYSRLTVDKSRWQEGNVFSCSVMHEALHNHYTQKSLSLSLGKGGSQVQLQESGGGLVQTGGSLRLSCAVHGRTFSNTGMGWFRQAPGNERQFVAIISPSGTSTYYADSVKGRFTISRDPAKNTVYLQMNSLKMDDTAVYYCAASYGSNWSTLRHQRRNEYDAWGQGTQVAVS
chain 2: GPPCPPCPAPEFLGGPSVFLFPPKPKDTLMISRTPEVTCVVVDVSQEDPEVQFNWYVDGVEVHNAKTKPREEQFNSTYRVVSVLTVLHQDWLNGKEYKCKVSNKGLPSSIEKTISKAKGQPREPQVCTLPPSQEEMTKNQVSLSCAVKGFYPSDIAVEWESNGQPENNYKTTPPVLDSDGSFFLVSRLTVDKSRWQEGNVFSCSVMHEALHNHYTQKSLSLSLGKGGSEVQLLESGGGLVQPGGSLRLSCAASGFTFGNYDMAWVRQAPGKRPEWVSSIDTGGDITHYADSVKGRFTISRDNAKNTLYLQMNSLRPEDTAVYWCATDEEYALGPNEFDYYGQGTLVTVSS
EC50: 3.4 nM
Max effect: > 95%

More lines, in order of falling EC50, values ahead:

EC50: 9.1 nM
Max effect: > 95%
B3: CIgG4B1A1(GS) (Fc fusion)
chain 1: GPPCPPCPAPEFLGGPSVFLFPPKPKDTLMISRTPEVTCVVVDVSQEDPEVQFNWYVDGVEVHNAKTKPREEQFNSTYRVVSVLTVLHQDWLNGKEYKCKVSNKGLPSSIEKTISKAKGQPREPQVYTLPPCQEEMTKNQVSLWCLVKGFYPSDIAVEWESNGQPENNYKTTPPVLDSDGSFFLYSRLTVDKSRWQEGNVFSCSVMHEALHNHYTQKSLSLSLGKGSQVQLQESGGGLVQTGGSLRLSCAVHGRTFSNTGMGWFRQAPGNERQFVAIISPSGTSTYYADSVKGRFTISRDPAKNTVYLQMNSLKMDDTAVYYCAASYGSNWSTLRHQRRNEYDAWGQGTQVAVS
chain 2: GPPCPPCPAPEFLGGPSVFLFPPKPKDTLMISRTPEVTCVVVDVSQEDPEVQFNWYVDGVEVHNAKTKPREEQFNSTYRVVSVLTVLHQDWLNGKEYKCKVSNKGLPSSIEKTISKAKGQPREPQVCTLPPSQEEMTKNQVSLSCAVKGFYPSDIAVEWESNGQPENNYKTTPPVLDSDGSFFLVSRLTVDKSRWQEGNVFSCSVMHEALHNHYTQKSLSLSLGKGSEVQLLESGGGLVQPGGSLRLSCAASGFTFGNYDMAWVRQAPGKRPEWVSSIDTGGDITHYADSVKGRFTISRDNAKNTLYLQMNSLRPEDTAVYWCATDEEYALGPNEFDYYGQGTLVTVSS

EC50: 3.8 nM
Max effect: > 95%
B9: CIgG4B1A1(G2SG2S) (Fc fusion)
chain 1: GPPCPPCPAPEFLGGPSVFLFPPKPKDTLMISRTPEVTCVVVDVSQEDPEVQFNWYVDGVEVHNAKTKPREEQFNSTYRVVSVLTVLHQDWLNGKEYKCKVSNKGLPSSIEKTISKAKGQPREPQVYTLPPCQEEMTKNQVSLWCLVKGFYPSDIAVEWESNGQPENNYKTTPPVLDSDGSFFLYSRLTVDKSRWQEGNVFSCSVMHEALHNHYTQKSLSLSLGKGGSGGSQVQLQESGGGLVQTGGSLRLSCAVHGRTFSNTGMGWFRQAPGNERQFVAIISPSGTSTYYADSVKGRFTISRDPAKNTVYLQMNSLKMDDTAVYYCAASYGSNWSTLRHQRRNEYDAWGQGTQVAVS
chain 2: GPPCPPCPAPEFLGGPSVFLFPPKPKDTLMISRTPEVTCVVVDVSQEDPEVQFNWYVDGVEVHNAKTKPREEQFNSTYRVVSVLTVLHQDWLNGKEYKCKVSNKGLPSSIEKTISKAKGQPREPQVCTLPPSQEEMTKNQVSLSCAVKGFYPSDIAVEWESNGQPENNYKTTPPVLDSDGSFFLVSRLTVDKSRWQEGNVFSCSVMHEALHNHYTQKSLSLSLGKGGSGGSEVQLLESGGGLVQPGGSLRLSCAASGFTFGNYDMAWVRQAPGKRPEWVSSIDTGGDITHYADSVKGRFTISRDNAKNTLYLQMNSLRPEDTAVYWCATDEEYALGPNEFDYYGQGTLVTVSS

EC50: 1.9 nM
Max effect: > 95%
B4: B1A1(G4S)4 (bispecific antibody)
chain: QVQLQESGGGLVQTGGSLRLSCAVHGRTFSNTGMGWFRQAPGNERQFVAIISPSGTSTYYADSVKGRFTISRDPAKNTVYLQMNSLKMDDTAVYYCAASYGSNWSTLRHQRRNEYDAWGQGTQVAVSGGGGSGGGGSGGGGSGGGGSEVQLLESGGGLVQPGGSLRLSCAASGFTFGNYDMAWVRQAPGKRPEWVSSIDTGGDITHYADSVKGRFTISRDNAKNTLYLQMNSLRPEDTAVYWCATDEEYALGPNEFDYYGQGTLVTVS
notes: two sdAbs linked by a peptide linker

EC50: 1.4 nM
Max effect: > 95%
B10: A1B2(G4S)4 (bispecific antibody)
chain: EVQLLESGGGLVQPGGSLRLSCAASGFTFGNYDMAWVRQAPGKRPEWVSSIDTGGDITHYADSVKGRFTISRDNAKNTLYLQMNSLRPEDTAVYWCATDEEYALGPNEFDYYGQGTLVTVSGGGGSGGGGSGGGGSGGGGSQVQLVESGGGLVQAGGSLRLSCAVFGSTFSNNVADWYRQAPGKQRELVARISASGATREYGDSVKGRFTISRDDAKNTMYLQMNNLKPEDTAVYRCHKIEWEDLSRKDYWGQGTQVTVS

Reference: patent publication US20250171562A1 (ALK ABELL, published 2025)
